These results are taken from article PMC12412624, “Engineered Cas12j‐8 is a Versatile Platform for Multiplexed Genome Modulation in Mammalian Cells”.

Data set [1] deals with T1, dCas12j-8 E258R+D527R E258R;D527R;D369A;E567A;D658A (bacteriophage (metagenome)).
T1 sequence: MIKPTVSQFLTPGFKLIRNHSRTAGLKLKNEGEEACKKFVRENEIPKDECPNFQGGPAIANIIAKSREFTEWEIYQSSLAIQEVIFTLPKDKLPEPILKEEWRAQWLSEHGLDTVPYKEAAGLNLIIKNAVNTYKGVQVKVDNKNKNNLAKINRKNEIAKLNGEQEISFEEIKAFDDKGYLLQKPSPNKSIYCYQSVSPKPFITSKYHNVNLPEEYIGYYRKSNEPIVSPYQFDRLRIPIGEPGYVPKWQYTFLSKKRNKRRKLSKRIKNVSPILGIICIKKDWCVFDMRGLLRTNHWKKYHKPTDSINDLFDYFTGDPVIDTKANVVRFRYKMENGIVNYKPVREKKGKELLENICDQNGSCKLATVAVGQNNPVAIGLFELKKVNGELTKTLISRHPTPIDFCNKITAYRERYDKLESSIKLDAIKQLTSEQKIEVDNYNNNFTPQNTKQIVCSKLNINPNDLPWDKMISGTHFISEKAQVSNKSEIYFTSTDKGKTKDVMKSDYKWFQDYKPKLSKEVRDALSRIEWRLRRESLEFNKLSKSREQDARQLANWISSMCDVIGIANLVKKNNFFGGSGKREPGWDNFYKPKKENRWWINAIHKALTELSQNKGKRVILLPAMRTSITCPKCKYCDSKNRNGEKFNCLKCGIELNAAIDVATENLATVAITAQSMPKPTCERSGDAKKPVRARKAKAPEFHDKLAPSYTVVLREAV
The conditions noted are these: HEK293T cells; panel 1d (compare within a panel only); scale: mean GFP / mean GFP of wild type, printed, no background subtraction.

In data set [2] the test system is T2, dCas12j-8 E258R+E157R E258R;E157R;D369A;E567A;D658A (bacteriophage (metagenome)).
T2 sequence: T1 sequence with E157R, R527D
The conditions noted are these: HEK293T cells; panel 1d (compare within a panel only); scale: mean GFP / mean GFP of wild type, printed, no background subtraction.

Data set [3] concerns T3, dCas12j-8 E258R+D313R+D495R+E547R E258R;D313R;D495R;E547R;D369A;E567A;D658A (bacteriophage (metagenome)).
T3 sequence: T1 sequence with D313R, D495R, R527D, E547R
The conditions noted are these: HEK293T cells; panel 1e (compare within a panel only); scale: mean GFP / mean GFP of wild type, printed, no background subtraction.

Positions count from the first letter of the chain named.

In the case of “CUUUCAAGACUAAUAGAUUGCUCCUUACGAGGAGACACUCCCUAUCAGUGAUAGAG / TTNACTCCCTATCAGTGATAGAG / CTCTATCACTGATAGGGAGTNAA [TetO]”, the binding signal in data set [1] stood at 2.83; in data set [2], 2.16; in data set [3], 4.81.
